Measured values reported in publication PMC5660093, “Structure of SgK223 pseudokinase reveals novel mechanisms of homotypic and heterotypic association” (Nature Communications, 2017).

B1: SgK269-αN1-PsK-Cter (WT) (domain or fragment, human, UniProt Q9H792 1267-1746, looked up)
chain: GIQKPQRQALYRGLENREEVVGKIRSLHTDALKKLAVKCEDLFMAGQKDQLRFGVDSWSDFRLTSDKPCCEAGDAVYYTASYAKDPLNNYAVKICKSKAKESQQYYHSLAVRQSLAVHFNIQQDCGHFLAEVPNRLLPWEDPDDPEKDEDDMEETEEDAKGETDGKNPKPCSEAASSQKENQGVMSKKQRSHVVVITREVPCLTVADFVRDSLAQHGKSPDLYERQVCLLLLQLCSGLEHLKPYHVTHCDLRLENLLLVHYQPGGTAQGFGPAEPSPTSSYPTRLIVSNFSQAKQKSHLVDPEILRDQSRLAPEIITATQYKKCDEFQTGILIYEMLHLPNPFDENPELKEREYTRADLPRIPFRSPYSRGLQQLASCLLNPNPSERILISDAKGILQCLLWGPREDLFQTFTACPSLVQRNTLLQNWLDIKRTLLMIKFAEKSLDREGGISLEDWLCAQYLAFATTDSLSCIVKILQHR
notes: SgK269 (PEAK1), human, residues 1267-1746: αN1 helix, pseudokinase domain and C-terminal helices; also called SgK269-WT (αN1-PsK-Cter); SgK269-WT; source: E. coli C41(DE3), purified (Ni-NTA, SEC)
B2: His tag cleaved SgK269-αN1-PsK-Cter F1609A (domain or fragment, human, UniProt Q9H792 1267-1746, looked up)
chain: GIQKPQRQALYRGLENREEVVGKIRSLHTDALKKLAVKCEDLFMAGQKDQLRFGVDSWSDFRLTSDKPCCEAGDAVYYTASYAKDPLNNYAVKICKSKAKESQQYYHSLAVRQSLAVHFNIQQDCGHFLAEVPNRLLPWEDPDDPEKDEDDMEETEEDAKGETDGKNPKPCSEAASSQKENQGVMSKKQRSHVVVITREVPCLTVADFVRDSLAQHGKSPDLYERQVCLLLLQLCSGLEHLKPYHVTHCDLRLENLLLVHYQPGGTAQGFGPAEPSPTSSYPTRLIVSNFSQAKQKSHLVDPEILRDQSRLAPEIITATQYKKCDEFQTGILIYEMLHLPNPADENPELKEREYTRADLPRIPFRSPYSRGLQQLASCLLNPNPSERILISDAKGILQCLLWGPREDLFQTFTACPSLVQRNTLLQNWLDIKRTLLMIKFAEKSLDREGGISLEDWLCAQYLAFATTDSLSCIVKILQHR
notes: SgK269 (PEAK1), human, residues 1267-1746; also called SgK269-αN1-PsK-Cter Phe1609Ala; source: E. coli C41(DE3), purified (Ni-NTA, SEC); not shown: His tag, N-terminal, cleaved

How the values were obtained:
[1] = target: the molecule itself; assay: AUC; sedimentation velocity, WT and oligomer-interface mutants each at 20 μM; 20 mM Tris-HCl, 150 mM NaCl, pH 8.0, 20 °C
[2] = target: the molecule itself; assay: SEC; peaks from the Mono Q column on Superdex 200 Increase 10/300 GL; 20 mM Tris pH 8.5, 200 mM NaCl, 1 mM TCEP
[3] = target: the molecule itself; assay: AUC; sedimentation velocity, WT and mutants each at 3.0 μM; 20 mM Tris-HCl, 150 mM NaCl, pH 8.0, 20 °C
SgK269-αN1-PsK-Cter (WT) = target: B1; assay: SEC; SgK223 and SgK269 proteins mixed equimolar at 29.06 μM, 15 min on ice; Superdex 200 Increase 10/300 GL; 20 mM Tris pH 8.5, 200 mM NaCl, 5% glycerol, 1 mM TCEP; preformed homodimers mixed; details: both partners purified
[4] = target: the molecule itself; assay: AUC; sedimentation velocity at 0.6, 1.2 and 2.3 μM; 20 mM Tris-HCl, 150 mM NaCl, pH 8.0, 20 °C; dimer to monomers
[5] = target: B2; assay: anion exchange chromatography (Mono Q); the two αG mutants mixed equimolar at 20 μM, overnight on ice, diluted five times, Mono Q 5/50 GL, linear NaCl gradient, 20 mM Tris pH 8.5; peaks analysed by SDS-PAGE; details: both partners purified
[6] = target: the molecule itself; assay: SAXS; inline gel filtration (Superdex 200 5/150); 20 mM Tris pH 8.5, 200 mM NaCl, 1 mM TCEP, 5% glycerol, 12 °C; WT injected at 2.2 mg/ml, I1243A at 3.5 mg/ml

B1: binds [1].

With B2 the “stoichiometry N” value [2] was 2.

B3: SgK223-αN1-PsK-Cter F974A (domain or fragment, human, UniProt Q86YV5 932-1406, looked up)
chain: GSTQLQLHGLLSNISSKEGTYAKLGGLYTQSLARLVAKCEDLAMGGQKKELHFNENNWSLFKLTCNKPCCDSGDAIYYCATCSEDPGSTYAVKICKAPEPKTVSYCSPSVPVHFNIQQDCGHFVASVPSSMLSSPDAPKDPVPALPTHPPAQEQDCVVVITREVPHQTASDFVRDSAASHQAEPEAYERRVCFLLLQLCNGLEHLKEHGIIHRDLCLENLLLVHCTLQAGPGPAPAPAPAPAPAAAAPPCSSAAPPAGGTLSPAAGPASPEGPREKQLPRLIISNFLKAKQKPGGTPNLQQKKSQARLAPEIVSASQYRKFDEFQTGILIYELLHQPNPFEVRAQLRERDYRQEDLPPLPALSLYSPGLQQLAHLLLEADPIKRIRIGEAKRVLQCLLWGPRRELVQQPGTSEEALCGTLHNWIDMKRALMMMKFAEKAVDRRRGVELEDWLCCQYLASAEPGALLQSLKLLQLL
notes: SgK223 (Pragmin), human, residues 932-1406; source: E. coli C41(DE3), purified (Ni-NTA, SEC)
B3: binds [3].

B4: SgK223-αN1-PsK-Cter (WT) (domain or fragment, human, UniProt Q86YV5 932-1406, looked up)
chain: GSTQLQLHGLLSNISSKEGTYAKLGGLYTQSLARLVAKCEDLFMGGQKKELHFNENNWSLFKLTCNKPCCDSGDAIYYCATCSEDPGSTYAVKICKAPEPKTVSYCSPSVPVHFNIQQDCGHFVASVPSSMLSSPDAPKDPVPALPTHPPAQEQDCVVVITREVPHQTASDFVRDSAASHQAEPEAYERRVCFLLLQLCNGLEHLKEHGIIHRDLCLENLLLVHCTLQAGPGPAPAPAPAPAPAAAAPPCSSAAPPAGGTLSPAAGPASPEGPREKQLPRLIISNFLKAKQKPGGTPNLQQKKSQARLAPEIVSASQYRKFDEFQTGILIYELLHQPNPFEVRAQLRERDYRQEDLPPLPALSLYSPGLQQLAHLLLEADPIKRIRIGEAKRVLQCLLWGPRRELVQQPGTSEEALCGTLHNWIDMKRALMMMKFAEKAVDRRRGVELEDWLCCQYLASAEPGALLQSLKLLQLL
notes: SgK223 (Pragmin), human, residues 932-1406: αN1 helix, pseudokinase domain and C-terminal helices; Modified pCOLD IV vector with an N-terminal His TEV cleavage tag; Monomer MW printed as 54 kDa; A seleno-methionine form was also crystallised; also called WT-SgK223-αN1-PsK-Cter; SgK223-WT (αN1-PsK-Cter); source: E. coli C41(DE3), purified (Ni-NTA, SEC)
With B4 the binding result (SgK269-αN1-PsK-Cter (WT)) was “binds” and the “stoichiometry N” value [4] was 2.

B5: SgK223-αN1-PsK-Cter W1354A (domain or fragment, human, UniProt Q86YV5 932-1406, looked up)
chain: GSTQLQLHGLLSNISSKEGTYAKLGGLYTQSLARLVAKCEDLFMGGQKKELHFNENNWSLFKLTCNKPCCDSGDAIYYCATCSEDPGSTYAVKICKAPEPKTVSYCSPSVPVHFNIQQDCGHFVASVPSSMLSSPDAPKDPVPALPTHPPAQEQDCVVVITREVPHQTASDFVRDSAASHQAEPEAYERRVCFLLLQLCNGLEHLKEHGIIHRDLCLENLLLVHCTLQAGPGPAPAPAPAPAPAAAAPPCSSAAPPAGGTLSPAAGPASPEGPREKQLPRLIISNFLKAKQKPGGTPNLQQKKSQARLAPEIVSASQYRKFDEFQTGILIYELLHQPNPFEVRAQLRERDYRQEDLPPLPALSLYSPGLQQLAHLLLEADPIKRIRIGEAKRVLQCLLWGPRRELVQQPGTSEEALCGTLHNAIDMKRALMMMKFAEKAVDRRRGVELEDWLCCQYLASAEPGALLQSLKLLQLL
notes: SgK223 (Pragmin), human, residues 932-1406; also called alanine mutation of Trp1354; source: E. coli C41(DE3), purified (Ni-NTA, SEC)
B5: binds [3].

B6: SgK223-αN1-PsK-Cter Y1282A (domain or fragment, human, UniProt Q86YV5 932-1406, looked up)
chain: GSTQLQLHGLLSNISSKEGTYAKLGGLYTQSLARLVAKCEDLFMGGQKKELHFNENNWSLFKLTCNKPCCDSGDAIYYCATCSEDPGSTYAVKICKAPEPKTVSYCSPSVPVHFNIQQDCGHFVASVPSSMLSSPDAPKDPVPALPTHPPAQEQDCVVVITREVPHQTASDFVRDSAASHQAEPEAYERRVCFLLLQLCNGLEHLKEHGIIHRDLCLENLLLVHCTLQAGPGPAPAPAPAPAPAAAAPPCSSAAPPAGGTLSPAAGPASPEGPREKQLPRLIISNFLKAKQKPGGTPNLQQKKSQARLAPEIVSASQYRKFDEFQTGILIYELLHQPNPFEVRAQLRERDARQEDLPPLPALSLYSPGLQQLAHLLLEADPIKRIRIGEAKRVLQCLLWGPRRELVQQPGTSEEALCGTLHNWIDMKRALMMMKFAEKAVDRRRGVELEDWLCCQYLASAEPGALLQSLKLLQLL
notes: as for B3
For B6, the “stoichiometry N” value [1] was 2.

B7: SgK223-αN1-PsK-Cter F1271A (domain or fragment, human, UniProt Q86YV5 932-1406, looked up)
chain: GSTQLQLHGLLSNISSKEGTYAKLGGLYTQSLARLVAKCEDLFMGGQKKELHFNENNWSLFKLTCNKPCCDSGDAIYYCATCSEDPGSTYAVKICKAPEPKTVSYCSPSVPVHFNIQQDCGHFVASVPSSMLSSPDAPKDPVPALPTHPPAQEQDCVVVITREVPHQTASDFVRDSAASHQAEPEAYERRVCFLLLQLCNGLEHLKEHGIIHRDLCLENLLLVHCTLQAGPGPAPAPAPAPAPAAAAPPCSSAAPPAGGTLSPAAGPASPEGPREKQLPRLIISNFLKAKQKPGGTPNLQQKKSQARLAPEIVSASQYRKFDEFQTGILIYELLHQPNPAEVRAQLRERDYRQEDLPPLPALSLYSPGLQQLAHLLLEADPIKRIRIGEAKRVLQCLLWGPRRELVQQPGTSEEALCGTLHNWIDMKRALMMMKFAEKAVDRRRGVELEDWLCCQYLASAEPGALLQSLKLLQLL
notes: SgK223 (Pragmin), human, residues 932-1406; also called SgK223-αN1-PsK-Cter Phe1271Ala; His-SgK223-αN1-PsK-Cter; source: E. coli C41(DE3), purified (Ni-NTA, SEC); not shown: His tag, N-terminal, kept
With B7 the “stoichiometry N” value [1] was 2 and the binding result [5] was “binds”.

B8: SgK223 αN1-PsK-Cter I1243A (domain or fragment, human, UniProt Q86YV5 932-1406, looked up)
chain: GSTQLQLHGLLSNISSKEGTYAKLGGLYTQSLARLVAKCEDLFMGGQKKELHFNENNWSLFKLTCNKPCCDSGDAIYYCATCSEDPGSTYAVKICKAPEPKTVSYCSPSVPVHFNIQQDCGHFVASVPSSMLSSPDAPKDPVPALPTHPPAQEQDCVVVITREVPHQTASDFVRDSAASHQAEPEAYERRVCFLLLQLCNGLEHLKEHGIIHRDLCLENLLLVHCTLQAGPGPAPAPAPAPAPAAAAPPCSSAAPPAGGTLSPAAGPASPEGPREKQLPRLIISNFLKAKQKPGGTPNLQQKKSQARLAPEAVSASQYRKFDEFQTGILIYELLHQPNPFEVRAQLRERDYRQEDLPPLPALSLYSPGLQQLAHLLLEADPIKRIRIGEAKRVLQCLLWGPRRELVQQPGTSEEALCGTLHNWIDMKRALMMMKFAEKAVDRRRGVELEDWLCCQYLASAEPGALLQSLKLLQLL
notes: as for B3
In the case of B8, the “stoichiometry N” value [6] is reported as 2.
